# Assay results from patent US6362319B1, “Glial cell line-derived neurotrophic factor” (Amgen Inc., priority 1991, dated 2002).
# B1: glial cell line-derived neurotrophic factor (protein)
# chain: SNMPEDYPDQFDDVMDFIQATIKRLKRSPDKQMAVLPRRERNRQAAAANPENSRGKGRRGQRGKNRGCVLTAIHLNVTDLGLGYETKEELIFRYCSGSCDAAETTYDKILKNLSRNRRLVTDKVGQACCRPIAF
# notes: dopaminergic neurotrophic protein purified from serum-free conditioned medium of rat B49 glioblastoma cells; disulfide-bonded dimer
# What was measured:
# [1] = system: dopaminergic neurons in rat embryo (E16) mesencephalic cell cultures; assay: Bioassay for dopaminergic neurotrophic activity: 3H-dopamine uptake in dissociated mesencephalic cell cultures; assay type: cell-based; conditions: cultures grown with GDNF for 15 days
# [2] = system: GABA neurons in mesencephalic cultures; assay: 14C-GABA uptake in mesencephalic cultures; assay type: cell-based, rat; conditions: cultures grown with GDNF for 16 days
# Procedure: FIGS. 21A-C depicts the specificity of GDNF to dopaminergic neurons. Cultures were established as described in Example 1B. GDNF was added on the day of plating. A. ^3H-DA uptake was measured after seven days in vitro. B. ^14C-GABA uptake was measured after eight days in vitro. Cells were incubated and treated as for ^3H-DA uptake, except the uptake buffer consists of Kreb-Ringer's phosphate buffer, pH 7.4, containing 5.6 mM glucose, 1.3 mM EDTA, 10 μM amino-oxyacetic acid (to prevent GABA breakdown), 2 mM β-alanine (to inhibit glia uptake of GABA) and 0.1 μM ^14C-GABA (150 mCi/mmole, New England Nuclear, Boston, Mass.). In the presence of 1 mM diaminobutyric acid (DABA), a potent inhibitor of ^14C-GABA uptake into GABA neurons, the ^14C-uptake was reduced to 10%. Control values in the presence of DABA were subtracted from experimental values.
# H^3-dopamine (^3H-DA) and ^14C-GABA uptake were measured in sister cultures of mesencephalic cells which had been grown with various concentrations of GDNF for 15 and 16 days, respectively. As described above, GDNF enhanced the ^3H-DA uptake capacity of mesencephalic dopamine neurons ˜150% over control without GDNF (FIG. 21A). […] This is also illustrated by the increase in the ^3H-DA/^14C-GABA uptake ratio calculated (FIG. 21C).
# [3] = system: parasympathetic nerve cells from chick embryo ciliary ganglia; assay: Neuronal survival assay (MTT), ciliary ganglia; assay type: cell-based
# Procedure: Cultures of primary check embryo ciliary ganglia and sympathetic chain ganglia were prepared as previously described (Collins 1978 Develop. Biol. 65:50; Manthorpe et al. 1986 Develop. Brain Res. 25:191). Briefly, ciliary or sympathetic ganglia were removed from fertile, pathogen free chicken eggs that had been incubated for 8 and 10 days, respectively, at 38° C. in a humidified atmosphere. […]
# Ten μl of a serial dilution of the sample to be assayed for neurotrophic activity was added to each well and the dishes were incubated for 20 hours at 37° C. in a humidified atmosphere containing 7.5% CO2. […] The absorbance of 570 nm was determined relative to a 690 nm reference for each well using an automatic microtiter plate reader (Dynatech, Chantilly, Va.). The absorbance of wells which had not received any neurotrophic agent (negative controls) was substracted from the absorbance of sample-containing wells. The resulting absorbance is proportional to the number of living cells in each well, defined as those nerve cells capable of reducing the dye. […] Specific activity was determined by dividing the number of trophic units by the amount of protein present in the sample.
# [4] = system: serotonergic neurons in rat embryo mesencephalic cultures; assay: 3H-serotonin uptake in mesencephalic cultures; assay type: cell-based; conditions: uptake after 6 days in vitro
# Procedure: FIGS. 24A-B depicts the specificity of GDNF to dopaminergic neurons. Cultures were prepared as described in Example 1B. GDNF was added on the day of plating, and uptake was measured after 6 days in vitro. A depicts dopamine uptake and B depicts serotonin uptake.
# In the presence of 10 μM citalpram (obtained from Dr. C. Mytilineou, Mount Sinai School of Medicine), a known potent inhibitor of serotonin uptake in serotonin neurons, the ^3H-serotonin uptake was reduced to 15%.
molecule,measurement,setting,value
B1,3H-DA uptake capacity over control without GDNF,[1],~150%
same,14C-GABA uptake higher than control,[2],~20%
same,survival of parasympathetic nerve cells,[3],promotes the survival in culture of parasympathetic nerve cells
same,effect on serotonin uptake,[4],fails to increase the uptake of serontonin
